Paper PMC10359629, “Thumb-domain dynamics modulate the functional repertoire of DNA-Polymerase IV (DinB)” (Nucleic Acids Research, 2022)

B1: DNA polymerase IV (DinB), DinB^1-351 (enzyme, E. coli, UniProt Q47155 1-351, looked up)
chain: MRKIIHVDMDCFFAAVEMRDNPALRDIPIAIGGSRERRGVISTANYPARKFGVRSAMPTGMALKLCPHLTLLPGRFDAYKEASNHIREIFSRYTSRIEPLSLDEAYLDVTDSVHCHGSATLIAQEIRQTIFNELQLTASAGVAPVKFLAKIASDMNKPNGQFVITPAEVPAFLQTLPLAKIPGVGKVSAAKLEAMGLRTCGDVQKCDLVMLLKRFGKFGRILWERSQGIDERDVNSERLRKSVGVERTMAEDIHHWSECEAIIERLYPELERRLAKVKPDLLIARQGVKLKFDDFQQTTQEHVWPRLNKADLIATARKTWDERRGGRGVRLVGLHVTLLDPQMERQLVLGL
modifications: biotin (EZ-Link NHS-PEG4-Biotin, conditions favouring the amino-terminal α-amino group) in the BLI assay; isotope-labelled ([U-2H,15N] or MALVI^proS methyl-labelled) in the NMR titrations
notes: E. coli DNA polymerase IV (DinB), residues 1-351, from pET28b(+)-DinB (Genscript); No removal of the His6 tag is described for DinB and DinBΔPAD; also called full-length DinB; MALVI^proS-DinB; source: E. coli BL21 (λDE3), purified (Ni2+-Histrap, heparin, SEC)
B2: DinBΔPAD (DinB^1-230) (domain or fragment, E. coli, UniProt Q47155 1-230, looked up)
chain: MRKIIHVDMDCFFAAVEMRDNPALRDIPIAIGGSRERRGVISTANYPARKFGVRSAMPTGMALKLCPHLTLLPGRFDAYKEASNHIREIFSRYTSRIEPLSLDEAYLDVTDSVHCHGSATLIAQEIRQTIFNELQLTASAGVAPVKFLAKIASDMNKPNGQFVITPAEVPAFLQTLPLAKIPGVGKVSAAKLEAMGLRTCGDVQKCDLVMLLKRFGKFGRILWERSQGID
modifications: biotin (EZ-Link NHS-PEG4-Biotin, conditions favouring the amino-terminal α-amino group) in the BLI assay; [U-2H,15N]-labelled in the NMR titration
notes: E. coli DNA polymerase IV (DinB), residues 1-230 (Fingers, Palm, Thumb); stop codon introduced at amino acid 231; also called Biotin-DinBΔPAD; source: E. coli BL21 (λDE3), purified (Ni2+-Histrap, heparin, SEC)

How the values were obtained:
[1] = target: T1, RNA polymerase core enzyme (subunits α2ββ'ω) (UniProt P0A7Z4 1-329; P0A8V2 1-1342; P0A8T7 1-1407; P0A800 1-91); assay: BLI; Octet RED96, 303 K; 0.5 μM Biotin-DinB immobilised on streptavidin biosensors, blocked with biocytin; RNAP core as analyte in 2-fold serial dilution; 50 mM KPi pH 6.5, 150 mM NaCl, 25 mM MgCl2, 1 mM TCEP, 0.5% BSA; double referencing; details: both partners purified
[2] = target: T1, RNA polymerase core enzyme (subunits …); assay: BLI; Octet RED96, 303 K; 0.5 μM Biotin-DinBΔPAD immobilised on streptavidin biosensors, blocked with biocytin; RNAP core as analyte in 2-fold serial dilution; 50 mM KPi pH 6.5, 50 mM NaCl, 25 mM MgCl2, 1 mM TCEP, 0.25% BSA; double referencing; details: both partners purified

Binder | Kd [1] [nM] | Kd [2] [nM]
B1 | 6.4 ± 0.07 | –
B2 | – | 5.9 ± 0.05
